Measurements from patent publication US7118886 (HSC RESEARCH AND DEVELOPMENT LIMITED PARTNERSHIP, dated 2006).

Molecular target: T1, GAL4 DNA binding domain fused to the five SH3 domains of Ese1 (amino acids 665-1213) (mouse, UniProt P04386 1-147 (Saccharomyces cerevisiae entry))
T1 construct: Yeast two-hybrid bait; also called pGBT9Ese1A3.3; SH3 domain bait of Ese1
Test: yeast two-hybrid screen with amino acids 665-1213 of Ese1 as bait

B1: Mouse YNK1 partial protein, GAL4 activation domain library clone (other, not shown: large carriers)
chain: LRAEGAKFRAVLDKAVQADGQVKERYQSHRDTIALLCKPEPELNAAIPSANPAKTMQGSEVVSVLKSLLSNLDEIKKERESLENDLKSVNFDMTSKFLTALAQDGVINEEALSVTELDRIYGGLTSKVQESLKKQEGLLKNIQVSHQEFSKMKQSNNEANLREEVLKNLATAYDNFVELVANLKEGTKFYNELTEILVRFQNKCSDIVFARKTERDELLKDLQQSIAREPSAPSIPPPAYQSSPAAGHAAAPPTPAPRTMPPAKPQPPARPPPPVLPANRVPPASAAAAPAGVGTASAAPPQTPGSAPPPQAQGPPYPTYPGYPGYCQMPMPMGYNPYAYGQYNMPYPPVYHQSPGQAPYPGPQQPTYPFPQPPQQSYYPQQ
- binding result: binds
